Target: recombinant histone H2B (UniProt P06899)
Assay: SEC + other: RP-HPLC; synthetic H2A.Z and recombinant H2B unfolded together (7 M Gdn·HCl, 20 mM mercaptoethanol, 20 mM Tris·HCl, pH 7.5; 2 h on ice), dialysed three times against refolding buffer (2.0 M NaCl, 2.0 mM mercaptoethanol, 10 mM Tris·HCl, pH 7.5) at 4 °C for 3 h; SEC of the reconstituted mixture, then RP-HPLC at 280 nm; ratio from peak areas and the number of tyrosines

synthetic histone H2A.Z (from UniProt P0C0S5 1-128) (natural protein)
stoichiometry N: 1

From article PMC6566460
